Results: patent US20210309718A1 (THERACHON, published 2021)

B3: sFGFR3_Del4-D3 (receptor)
chain: ESLGTEQRVVGRAAEVPGPEPGQQEQLVFGSGDAVELSCPPPGGGPMGPTVWVKDGTGLVPSERVLVGPQRLQVLNASHEDSGAYSCRQRLTQRVLCHFSVRVTDAPSSGDDEDGEDEAEDTGVDTGAPYWTRPERMDKKLLAVPAANTVRFRCPAAGNPTPSISWLKNGREFRGEHRIGGIKLRHQQWSLVMESVVPSDRGNYTCVVENKFGSIRQTYTLDVLERSPHRPILQAGLPANQTAVLGSDVEFHCKVYSDAQPHIQWLKHVEVNGSKVGPDGTPYVTVLKTAGANTTDKELEVLSLHNVTFEDAGEYTCLAGNSIGFSHHSAWLVVLPVSLESNASMSSNT
notes: Secreted form without signal peptide; also called sFGFR3_Del4 with extended Ig-like C2-type domain 3

Columns and labels:
sFGFR3_Del4-D3 [1] = molecular target: B3; assay: SPR (Biacore T200), immobilised sFGFR3_Del4-D3, steady state
sFGFR3_Del4-D3 [2] = molecular target: B3; assay: SPR (Biacore T200), immobilised sFGFR3_Del4-D3, kinetic fit, 1:1 model
sFGFR3_Del4-D3 [3] = molecular target: B3; assay: SPR (Biacore T200), immobilised sFGFR3_Del4-D3, FGF as analyte, 1:1 model, ka1
sFGFR3_Del4-D3 [4] = molecular target: B3; assay: SPR (Biacore T200), immobilised sFGFR3_Del4-D3, kinetic fit, 2:1 model
sFGFR3_Del4-D3 [5] = molecular target: B3; assay: SPR (Biacore T200), immobilised sFGFR3_Del4-D3, FGF as analyte, 2:1 (conformational change) model, ka1
sFGFR3_Del4-D3 [6] = molecular target: B3; assay: SPR (Biacore T200), immobilised sFGFR3_Del4-D3, FGF as analyte, 2:1 (conformational change) model, kd1
sFGFR3_Del4-D3 [7] = molecular target: B3; assay: SPR (Biacore T200), immobilised sFGFR3_Del4-D3, FGF as analyte, 2:1 (conformational change) model, kd2
human FGF9 [8] = molecular target: T1, human FGF9 (human, UniProt P31371 4-208); assay: SPR (Biacore T200), immobilised sFGFR3_Del4-D3, steady state
human FGF9 [9] = molecular target: T1, human FGF9; assay: SPR (Biacore T200), immobilised sFGFR3_Del4-D3, kinetic fit, 2:1 model
human FGF9 [10] = molecular target: T1, human FGF9; assay: SPR (Biacore T200), immobilised sFGFR3_Del4-D3, FGF as analyte, 2:1 (conformational change) model, ka1
human FGF9 [11] = molecular target: T1, human FGF9; assay: SPR (Biacore T200), immobilised sFGFR3_Del4-D3, FGF as analyte, 2:1 (conformational change) model, kd1

B1: human FGF18 (ligand)
chain: EENVDFRIHVENQTRARDDVSRKQLRLYQLYSRTSGKHIQVLGRRISARGEDGDKYAQLLVETDTFGSQVRIKGKETEFYLCMNRKGKLVGKPDGTSKECVFIEKVLENNYTALMSAKYSGWYVGFTKKGRPRKGPKTRENQQDVHFMKRYPKGQPELQKPFKYTTVTKRSRRIRPTHPA
notes: also called hFGF18; fibroblast growth factor 18
**Q.** What does the source list for B1?
**A.** Kd (sFGFR3_Del4-D3 [1]): 6.4 nM; Kd (sFGFR3_Del4-D3 [2]): 4.5 nM; kon (sFGFR3_Del4-D3 [3]): 200000 M⁻¹ s⁻¹

B2: human FGF21 (ligand)
chain: HPIPDSSPLLQFGGQVRQRYLYTDDAQQTEAHLEIREDGTVGGAADQSPESLLQLKALKPGVIQILGVKTSRFLCQRPDGALYGSLHFDPEACSFRELLLEDGYNVYQSEAHGLPLHLPGNKSPHRDPAPRGPARFLPLPGLPPALPEPPGILAPQPPDVGSSDPLSMVGPSQGRSPSYAS
notes: also called hFGF21; fibroblast growth factor 21
**Q.** Which Kd (sFGFR3_Del4-D3 [4]) does the source give for B2 here?
**A.** 28000 nM

**Q.** And the kon (sFGFR3_Del4-D3 [5])?
**A.** 258 M⁻¹ s⁻¹

**Q.** What about the koff (sFGFR3_Del4-D3 [6]) of the same binder?
**A.** 0.0055 s⁻¹

**Q.** What about the kd2 (sFGFR3_Del4-D3 [7]) of the same binder?
**A.** 0.0014 s⁻¹

**Q.** For B3, which Kd (human FGF9 [8]) is on record?
**A.** 3.6 nM

**Q.** And the Kd (human FGF9 [9])?
**A.** 1.8 nM

**Q.** And the kon (human FGF9 [10])?
**A.** 2.3e+06 M⁻¹ s⁻¹

**Q.** And the koff (human FGF9 [11])?
**A.** 0.026 s⁻¹
